Experimental data from patent US20050090448A1 (BAXTER INTERNATIONAL, published 2005).
Bridges are numbered along the chain shown (N, C = ends). Where no end group is shown, it is not given here.

Target: complement component C5 in pooled human plasma (human, UniProt P01031 19-1676)
Test: cell-based or functional assay

complement component C5 in pooled human plasma, sequence (P01031 19-1676 limits assumed): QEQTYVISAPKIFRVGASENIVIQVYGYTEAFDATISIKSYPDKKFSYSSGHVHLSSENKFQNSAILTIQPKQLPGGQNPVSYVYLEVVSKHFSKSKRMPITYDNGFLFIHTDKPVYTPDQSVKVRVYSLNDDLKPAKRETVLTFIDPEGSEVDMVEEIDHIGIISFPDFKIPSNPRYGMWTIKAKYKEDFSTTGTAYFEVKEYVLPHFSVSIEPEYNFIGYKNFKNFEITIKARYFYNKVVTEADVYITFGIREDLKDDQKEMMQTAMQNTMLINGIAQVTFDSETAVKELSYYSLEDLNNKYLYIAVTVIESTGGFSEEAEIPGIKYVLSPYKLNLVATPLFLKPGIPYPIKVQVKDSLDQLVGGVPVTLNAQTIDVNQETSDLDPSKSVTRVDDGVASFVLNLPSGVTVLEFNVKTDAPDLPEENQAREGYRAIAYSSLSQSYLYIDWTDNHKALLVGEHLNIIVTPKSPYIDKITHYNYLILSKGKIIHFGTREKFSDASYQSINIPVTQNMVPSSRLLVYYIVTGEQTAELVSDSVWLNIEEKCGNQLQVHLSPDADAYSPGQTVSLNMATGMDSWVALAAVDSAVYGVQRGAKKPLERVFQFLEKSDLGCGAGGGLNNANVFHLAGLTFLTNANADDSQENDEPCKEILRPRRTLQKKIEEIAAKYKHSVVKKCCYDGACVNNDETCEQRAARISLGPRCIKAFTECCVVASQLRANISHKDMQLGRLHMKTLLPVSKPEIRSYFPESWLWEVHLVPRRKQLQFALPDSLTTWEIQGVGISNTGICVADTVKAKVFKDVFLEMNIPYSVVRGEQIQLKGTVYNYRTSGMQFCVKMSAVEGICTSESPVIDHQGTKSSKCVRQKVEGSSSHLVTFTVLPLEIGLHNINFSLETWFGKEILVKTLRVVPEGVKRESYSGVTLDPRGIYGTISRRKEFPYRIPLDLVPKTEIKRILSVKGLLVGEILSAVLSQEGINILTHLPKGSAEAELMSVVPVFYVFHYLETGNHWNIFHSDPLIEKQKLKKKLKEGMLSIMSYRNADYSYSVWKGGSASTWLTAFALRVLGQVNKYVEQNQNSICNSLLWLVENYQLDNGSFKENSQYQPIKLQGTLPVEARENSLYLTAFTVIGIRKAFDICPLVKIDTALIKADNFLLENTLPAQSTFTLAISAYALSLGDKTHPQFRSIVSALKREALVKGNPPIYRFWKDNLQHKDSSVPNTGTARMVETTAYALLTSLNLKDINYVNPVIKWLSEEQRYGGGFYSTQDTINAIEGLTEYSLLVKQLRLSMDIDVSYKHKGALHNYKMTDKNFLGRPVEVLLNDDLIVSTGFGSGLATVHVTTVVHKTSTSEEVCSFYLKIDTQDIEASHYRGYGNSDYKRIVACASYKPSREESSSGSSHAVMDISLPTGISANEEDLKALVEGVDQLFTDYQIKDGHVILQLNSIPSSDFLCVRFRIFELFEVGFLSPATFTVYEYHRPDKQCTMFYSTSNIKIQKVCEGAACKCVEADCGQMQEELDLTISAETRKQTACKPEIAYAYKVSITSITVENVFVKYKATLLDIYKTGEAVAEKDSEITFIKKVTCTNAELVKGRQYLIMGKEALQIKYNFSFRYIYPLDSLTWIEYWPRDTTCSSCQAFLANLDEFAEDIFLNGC

Binder: DSTWTNFRWEFY [Peptide 8 (SEQ ID NO 8)]
- IC50 of inhibition of classical pathway hemolysis (antibody sensitized sheep erythrocytes, human plasma): 5.8 µM

Binder: SFNDLLWRWEWP [Peptide 7 (SEQ ID NO 7)]
- IC50 of inhibition of classical pathway hemolysis (antibody sensitized sheep erythrocytes, human plasma): 48.9 µM

Binder: TQDNRWEFPLRV [Peptide 13 (SEQ ID NO 13)]
- IC50 of inhibition of classical pathway hemolysis (antibody sensitized sheep erythrocytes, human plasma): 29.2 µM

Binder: SDMCAAPWLCPV (disulfide 4-10 (inferred)) [Peptide 6 (SEQ ID NO 6)]
- IC50 of inhibition of classical pathway hemolysis (antibody sensitized sheep erythrocytes, human plasma): 3 µM
